# Measurements published in PMC11447106 (Clinical and Translational Medicine, 2024).
# What was measured:
# [1] = endogenous NRF2 stability by WB, knock-in cells; conditions: glycan lost; control: NCI-H1299 NRF2-WT cells
# [2] = RT-PCR of NRF2 target genes in xenografts; conditions: glycan lost; control: NCI-H1299 NRF2-WT xenografts
# [3] = NRF2 level in xenografts, IHC and WB; conditions: glycan lost; control: NCI-H1299 NRF2-WT xenografts
# [4] = CHX chase, Flag-NRF2 remaining; NCI-H1299, HEK293T; conditions: glycan lost; control: Flag-NRF2WT
# cisplatin IC50 in cells = conditions: glycan lost; control: NCI-H1299 NRF2-WT cells
# [5] = H2O2-induced ARE luciferase activity; conditions: glycan lost; control: NCI-H1299 NRF2-WT cells + H2O2
# [6] = H2O2-induced nuclear translocation, fractionation; conditions: glycan lost; control: NCI-H1299 NRF2-WT cells + H2O2
# [7] = xenograft growth under cisplatin 1.5 or 3.0 mg/kg; conditions: glycan lost; control: NCI-H1299 NRF2-WT xenografts + cisplatin
# [8] = WB of NRF2 after OGT KD or overexpression; conditions: glycan lost; control: control NCI-H1299 cells
protein,measurement,setting,value
NRF2: S103A (protein) parent chain: MMDLELPPPGLPSQQDMDLIDILWRQDIDLGVSREVFDFSQRRKEYELEKQKKLEKERQEQLQKEQEKAFFAQLQLDEETGEFLPIQPAQHIQSETSGSANYSQVAHIPKSDALYFDDCMQLLAQTFPFVDDNEVSSATFQSLVPDIPGHIESPVFIATNQAQSPETSVAQVAPVDLDGMQQDIEQVWEELLSIPELQCLNIENDKLVETTMVPSPEAKLTEVDNYHFYSSIPSMEKEVGNCSPHFLNAFEDSFSSILSTEDPNQLTVNSLNSDATVNTDFGDEFYSAFIAEPSISNSMPSPATLSHSLSELLNGPIDVSDLSLCKAFNQNHPESTAEFNDSDSGISLNTSPSVASPEHSVESSSYGDTLLGLSDSEVEELDSAPGSVKQNGPKTPVHSSGDMVQPLSPSQGQSTHVHDAQCENTPEKELPVSPGHRKTPFTKDKHSSRLEAHLTRDELRAKALHIPFPVEKIINLPVVDFNEMMSKEQFNEAQLALIRDIRRRGKNKVAAQNCRKRKLENIVELEQDLDHLKDEKEKLLKEKGENDKSLHLLKKQLSTLYLEVFSMLRDEDGKPYSPSEYSLQQTRDGNVFLVPKSKKPDVKKN,degradation_or_half_life,[1],decreases
same,other: transcriptional activity,[2],decreases
same,expression_or_secretion,[3],decreases
same,degradation_or_half_life,[4],decreases
same,"other: cisplatin resistance, IC50",cisplatin IC50 in cells,"decreases, 19.53 vs 31.83"
same,other: transcriptional activity,[5],decreases
same,localisation_or_trafficking,[6],decreases
same,other: cisplatin resistance,[7],decreases
NRF2: S111A (protein) parent chain: MMDLELPPPGLPSQQDMDLIDILWRQDIDLGVSREVFDFSQRRKEYELEKQKKLEKERQEQLQKEQEKAFFAQLQLDEETGEFLPIQPAQHIQSETSGSANYSQVAHIPKSDALYFDDCMQLLAQTFPFVDDNEVSSATFQSLVPDIPGHIESPVFIATNQAQSPETSVAQVAPVDLDGMQQDIEQVWEELLSIPELQCLNIENDKLVETTMVPSPEAKLTEVDNYHFYSSIPSMEKEVGNCSPHFLNAFEDSFSSILSTEDPNQLTVNSLNSDATVNTDFGDEFYSAFIAEPSISNSMPSPATLSHSLSELLNGPIDVSDLSLCKAFNQNHPESTAEFNDSDSGISLNTSPSVASPEHSVESSSYGDTLLGLSDSEVEELDSAPGSVKQNGPKTPVHSSGDMVQPLSPSQGQSTHVHDAQCENTPEKELPVSPGHRKTPFTKDKHSSRLEAHLTRDELRAKALHIPFPVEKIINLPVVDFNEMMSKEQFNEAQLALIRDIRRRGKNKVAAQNCRKRKLENIVELEQDLDHLKDEKEKLLKEKGENDKSLHLLKKQLSTLYLEVFSMLRDEDGKPYSPSEYSLQQTRDGNVFLVPKSKKPDVKKN,degradation_or_half_life,[4],no change
NRF2: T350A (protein) parent chain: MMDLELPPPGLPSQQDMDLIDILWRQDIDLGVSREVFDFSQRRKEYELEKQKKLEKERQEQLQKEQEKAFFAQLQLDEETGEFLPIQPAQHIQSETSGSANYSQVAHIPKSDALYFDDCMQLLAQTFPFVDDNEVSSATFQSLVPDIPGHIESPVFIATNQAQSPETSVAQVAPVDLDGMQQDIEQVWEELLSIPELQCLNIENDKLVETTMVPSPEAKLTEVDNYHFYSSIPSMEKEVGNCSPHFLNAFEDSFSSILSTEDPNQLTVNSLNSDATVNTDFGDEFYSAFIAEPSISNSMPSPATLSHSLSELLNGPIDVSDLSLCKAFNQNHPESTAEFNDSDSGISLNTSPSVASPEHSVESSSYGDTLLGLSDSEVEELDSAPGSVKQNGPKTPVHSSGDMVQPLSPSQGQSTHVHDAQCENTPEKELPVSPGHRKTPFTKDKHSSRLEAHLTRDELRAKALHIPFPVEKIINLPVVDFNEMMSKEQFNEAQLALIRDIRRRGKNKVAAQNCRKRKLENIVELEQDLDHLKDEKEKLLKEKGENDKSLHLLKKQLSTLYLEVFSMLRDEDGKPYSPSEYSLQQTRDGNVFLVPKSKKPDVKKN,degradation_or_half_life,[4],no change
NRF2: OGT knockdown (protein) parent chain: MMDLELPPPGLPSQQDMDLIDILWRQDIDLGVSREVFDFSQRRKEYELEKQKKLEKERQEQLQKEQEKAFFAQLQLDEETGEFLPIQPAQHIQSETSGSANYSQVAHIPKSDALYFDDCMQLLAQTFPFVDDNEVSSATFQSLVPDIPGHIESPVFIATNQAQSPETSVAQVAPVDLDGMQQDIEQVWEELLSIPELQCLNIENDKLVETTMVPSPEAKLTEVDNYHFYSSIPSMEKEVGNCSPHFLNAFEDSFSSILSTEDPNQLTVNSLNSDATVNTDFGDEFYSAFIAEPSISNSMPSPATLSHSLSELLNGPIDVSDLSLCKAFNQNHPESTAEFNDSDSGISLNTSPSVASPEHSVESSSYGDTLLGLSDSEVEELDSAPGSVKQNGPKTPVHSSGDMVQPLSPSQGQSTHVHDAQCENTPEKELPVSPGHRKTPFTKDKHSSRLEAHLTRDELRAKALHIPFPVEKIINLPVVDFNEMMSKEQFNEAQLALIRDIRRRGKNKVAAQNCRKRKLENIVELEQDLDHLKDEKEKLLKEKGENDKSLHLLKKQLSTLYLEVFSMLRDEDGKPYSPSEYSLQQTRDGNVFLVPKSKKPDVKKN,expression_or_secretion,[8],decreases
NRF2: S310A (protein) parent chain: MMDLELPPPGLPSQQDMDLIDILWRQDIDLGVSREVFDFSQRRKEYELEKQKKLEKERQEQLQKEQEKAFFAQLQLDEETGEFLPIQPAQHIQSETSGSANYSQVAHIPKSDALYFDDCMQLLAQTFPFVDDNEVSSATFQSLVPDIPGHIESPVFIATNQAQSPETSVAQVAPVDLDGMQQDIEQVWEELLSIPELQCLNIENDKLVETTMVPSPEAKLTEVDNYHFYSSIPSMEKEVGNCSPHFLNAFEDSFSSILSTEDPNQLTVNSLNSDATVNTDFGDEFYSAFIAEPSISNSMPSPATLSHSLSELLNGPIDVSDLSLCKAFNQNHPESTAEFNDSDSGISLNTSPSVASPEHSVESSSYGDTLLGLSDSEVEELDSAPGSVKQNGPKTPVHSSGDMVQPLSPSQGQSTHVHDAQCENTPEKELPVSPGHRKTPFTKDKHSSRLEAHLTRDELRAKALHIPFPVEKIINLPVVDFNEMMSKEQFNEAQLALIRDIRRRGKNKVAAQNCRKRKLENIVELEQDLDHLKDEKEKLLKEKGENDKSLHLLKKQLSTLYLEVFSMLRDEDGKPYSPSEYSLQQTRDGNVFLVPKSKKPDVKKN,degradation_or_half_life,[4],no change
